A short description of this data set: soluble on expression in E. coli; label from the status in PepcDB or PDB records.
Turning to “MSLQPVPDAGPWGDYLCDSPWALINSSIYAMKEIEPEPDFILWTGDDTPHVPDEKLGEAAVLEIVERLTKLIREVFPDTKVYAALGNHDFHPKNQFPAGSNNIYNQIAELWKPWLSNESIALFKKGAFYCEKLPGPSGAGRIVVLNTNLYYTSNALTADMADPGQQFQWLEDVLTDASKAGDMVYIVGHVPPGFFEKTQNKAWFREGFNEKYLKVVRKHHRVIAGQFFGHHHTDSFRMLYDDAGVPISAMFITPGVTPWKTTLPGVVNGANNPAIRVFEYDRATLSLKEGHHHHHH”, the “soluble on expression in E. coli” value is on record as “not soluble”.
For “MCLILTAWHAHPAYALVVAANRDEFYDRPAAPLAWWSDAPHVLAGRDLAQVVGHAGTWMGMTRDGRFAALTNYRAPSERRPDARSRGELVANFLAAEDASIPAYLDQLKARNGVYNGYNLLTATRDELWWTSNRAEAPRQLAPGVYGLSNALLDTPWFKVRHRVAAFAEALAADTGRHGNAIDVARYLDLLAETREAPLGALPATGVAPEWEKLLSAAFIRSPRYGTRASTVLRIRHDGCFDVTERRFDAQGQIGETRYLGVLDAVTQADTPLEHHHHHH”, the “soluble on expression in E. coli” value is listed as “not soluble”.
With “MSDLQKLIQGKIKTIAFAHDSTRVIQCFIQYGNEEQRKQAFQELQGDLVELSKAKYSRNIVKKFLMYGSKPQAAEIIRSFKGHVRKMLRHSEASAIVEYAYNDKAILEQRNMLTEELYGNTFQLYKSADHPTLDKVLELQPAKLELIMDEMKQVLTPMAQKEAVIKHSLVHKVFLDFFTYAPPKPRSELIEAIREAVVYLAHTHDGARVAMHCLWHGTPKDRKVIVKTMKTYVERVANVSAARARFLKSD”, the “soluble on expression in E. coli” value is given as “not soluble”.
Consider “MSLTSQITSNSPVKWKRRTRHDTCGKITLFALQKTMYFDNLSTKKHNLDNLELERSCFEISETMDSSLSIITYSMSVHSLQKNGEPMKQEKQQFIKTDWTIDMINRRQFEKYAIDILTATKDIHRGGWVERIDNKAWQYVRVYENGDIEVLITLQIIRFHKYFDTPVWLQFNPNHLLPADYVQLDHVMKYVDHSHLTRADLANDIYNINLQRYDFGLFGVTRDIYRSLSGDLETRYWGRRKSERQIRLYDKMREMKKHGKADDIPDGITDWWRLEFQFRGGKVESWQEEVEGHHHHHH”, for which the “soluble on expression in E. coli” value is on record as “not soluble”.
The entry for “SLSSPLLPAPVCNPNKAIFTVDAKTTEILVANDKACGLLGYSSQDLIGQKLTQFFLRSDSDVVEALSEEHMEADGHAAVVFGTVVDIISRSGEKIPVSVWMKRMRQERRLCCVVVLEPVER” is “soluble”.
The entry for “LLSKKEIITVNVAPGHHFNDVITVKGMADEEIDKTTCGDLKFHLTEKQENLEQKQIFLKNFDDGAGEDLYTSITISLSEALTGFEKFLTKTFDDRLLTLSVKPGRVVRPGDTIKIANEGWPILDNPHGRCGDLYVFVHIEFPPDNWFNEKSELLAIKTNLPSSSSCASHATVNTEDDSNLTNNETISNFRIIHTDDLPEGIRPFKPEAQDSAHQKARSSYCCIQ” is “not soluble”; for “MGSDKIHHHHHHSDSLQSAYDTDATYRDKAGKKESGYTATFTETCNSENDVQIIVDYTVEPNNKSDVEIFQDRMDIIKDNTNASDIYADGGYYGENVINKANSKGIEIQLHYTDMTGKTAPEGQLPAHHFVFNKDMEMVQCPGGQIPSSSKYNSKTKITTSHFPKEVCNNCPHRCNCPLKEQKRDMVVRISKKSILASQVRETVNDPHIKHENISKRAAIEGTNSAIKGCQGAKRLRVRGKIKCTLQIGFKVIGHNFKQIFRALTKQIKKPKIKTKGLLCPNPN” it is “not soluble”.
“MAQHHGHLGAVYDAAGPQEVAALYDRWAETYESEMARAGYRHPAIGVALLARHLPRGARPLLDAGAGTGLLGEWLEIVGYPEVEALDISAGMLEVARAKGIYARCHNLPLGAALPFRDGAFAGIISTGVFTTGHVGAEALPELLRICRPGGVIVLTVKESLWQGGFAVSLEAAVASGLEHHHHHH”: the “soluble on expression in E. coli” value is “not soluble”.
On to “MGSDKIHHHHHHNTPREVTLHFLRTAGHPLTRWALQRQPPSPKQLEEEFLKIPSNFVSPEDLDIPGHASKDRYKTILPNPQSRVCLGRAQSQEDGDYINANYIRGYDGKEKVYIATQGPMPNTVSDFWEMVWQEEVSLIVMLTQLREGKEKCVHYWPTEEETYGPFQIRIQDMKECPEYTVRQLTIQYQEERRSVKHILFSAWPDHQTPESAGPLLRLVAEVEESPETAAHPGPIVVHCSAGIGRTGCFIATRIGCQQLKARGEVDILGIVCQLRLDRGGMIQTAEQYQFLHHTLALYAGQLPEEPSP”, for which the “soluble on expression in E. coli” value is reported as “not soluble”.

The record behind these values is the DeepSol protein solubility set.
